Data from US20240000957A1 (published 2024).

Columns and labels:
Assay in all cases: SPR
Rat EphA3 Fc fusion = biological target: T1, Rat EphA3 Fc fusion (Rat, UniProt O08680 21-541)
T1 construct: SPR; Sino Biologics 80465-R02H
T1 sequence (looked up): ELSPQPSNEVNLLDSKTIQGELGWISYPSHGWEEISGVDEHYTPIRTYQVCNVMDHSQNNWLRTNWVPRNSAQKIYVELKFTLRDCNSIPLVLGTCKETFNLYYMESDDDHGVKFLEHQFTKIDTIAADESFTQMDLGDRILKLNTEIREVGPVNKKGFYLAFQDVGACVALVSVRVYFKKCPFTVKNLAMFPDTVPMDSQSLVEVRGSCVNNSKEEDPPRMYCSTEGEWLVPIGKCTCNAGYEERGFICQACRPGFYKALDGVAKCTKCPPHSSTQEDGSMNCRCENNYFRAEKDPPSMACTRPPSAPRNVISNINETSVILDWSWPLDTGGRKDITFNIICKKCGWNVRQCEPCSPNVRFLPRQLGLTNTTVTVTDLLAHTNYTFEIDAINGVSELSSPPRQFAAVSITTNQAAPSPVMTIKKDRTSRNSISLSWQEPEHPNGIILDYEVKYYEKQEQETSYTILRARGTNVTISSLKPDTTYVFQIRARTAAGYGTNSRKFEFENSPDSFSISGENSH

Human EphB4 Fc fusion = biological target: T2, Human EphB4 Fc fusion (Human, UniProt P54760 16-539)
T2 construct: SPR; Sino Biologics 10235-H02H
T2 sequence (looked up): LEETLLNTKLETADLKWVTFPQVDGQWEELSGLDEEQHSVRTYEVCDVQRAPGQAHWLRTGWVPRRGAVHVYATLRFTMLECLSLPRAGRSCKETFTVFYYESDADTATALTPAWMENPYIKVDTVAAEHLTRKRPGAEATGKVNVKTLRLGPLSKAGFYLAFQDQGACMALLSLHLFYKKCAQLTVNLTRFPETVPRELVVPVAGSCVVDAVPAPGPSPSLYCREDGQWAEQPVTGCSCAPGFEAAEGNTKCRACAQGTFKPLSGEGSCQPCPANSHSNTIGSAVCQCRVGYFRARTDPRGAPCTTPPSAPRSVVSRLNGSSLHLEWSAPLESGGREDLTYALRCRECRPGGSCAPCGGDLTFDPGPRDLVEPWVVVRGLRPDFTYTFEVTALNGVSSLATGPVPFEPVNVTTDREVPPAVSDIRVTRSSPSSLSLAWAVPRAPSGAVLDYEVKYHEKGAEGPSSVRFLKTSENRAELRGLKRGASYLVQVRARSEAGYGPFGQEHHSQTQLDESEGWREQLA

Human EphA6 Fc fusion = biological target: T3, Human EphA6 Fc fusion (Human, UniProt Q9UF33 23-550, limits assumed)
T3 construct: SPR; R&D Systems 5606-A6
T3 sequence (looked up): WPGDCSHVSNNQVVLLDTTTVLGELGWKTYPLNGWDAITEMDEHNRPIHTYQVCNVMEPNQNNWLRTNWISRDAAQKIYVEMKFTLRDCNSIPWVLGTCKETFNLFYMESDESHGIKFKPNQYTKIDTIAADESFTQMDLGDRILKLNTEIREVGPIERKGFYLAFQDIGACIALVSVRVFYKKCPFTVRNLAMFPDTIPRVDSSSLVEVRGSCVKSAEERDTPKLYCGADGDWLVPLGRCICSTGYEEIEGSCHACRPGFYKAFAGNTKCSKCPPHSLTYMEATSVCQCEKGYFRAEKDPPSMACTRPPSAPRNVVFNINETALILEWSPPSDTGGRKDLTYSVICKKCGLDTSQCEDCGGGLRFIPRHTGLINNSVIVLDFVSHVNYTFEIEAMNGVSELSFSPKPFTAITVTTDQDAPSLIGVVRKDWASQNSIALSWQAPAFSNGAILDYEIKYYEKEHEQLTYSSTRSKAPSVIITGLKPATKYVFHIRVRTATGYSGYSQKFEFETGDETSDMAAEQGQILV

Human EphA7 Fc fusion = biological target: T4, Human EphA7 Fc fusion (Human, UniProt Q15375 28-555, limits assumed)
T4 construct: SPR; R&D Systems 6756-A7
T4 sequence (looked up): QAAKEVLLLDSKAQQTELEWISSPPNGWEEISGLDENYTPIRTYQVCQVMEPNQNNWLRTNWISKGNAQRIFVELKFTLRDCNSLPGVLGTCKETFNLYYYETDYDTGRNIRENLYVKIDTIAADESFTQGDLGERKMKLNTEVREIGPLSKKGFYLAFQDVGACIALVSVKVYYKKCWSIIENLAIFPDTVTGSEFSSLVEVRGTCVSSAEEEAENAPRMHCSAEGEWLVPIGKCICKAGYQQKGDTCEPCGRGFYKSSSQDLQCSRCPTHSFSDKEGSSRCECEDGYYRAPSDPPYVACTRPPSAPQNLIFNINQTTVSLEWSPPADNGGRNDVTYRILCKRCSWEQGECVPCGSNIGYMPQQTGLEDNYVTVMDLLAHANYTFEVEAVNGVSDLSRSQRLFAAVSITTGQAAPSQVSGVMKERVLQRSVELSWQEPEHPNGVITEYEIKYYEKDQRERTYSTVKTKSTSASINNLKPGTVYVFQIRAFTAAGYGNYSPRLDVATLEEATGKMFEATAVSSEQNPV

Mouse EphA4 Fc fusion = biological target: T5, Mouse EphA4 Fc fusion (Mouse, UniProt Q03137 20-547)
T5 construct: SPR; Sino Biologics 50575-M02H

Human EphA4 Fc fusion = biological target: T6, Human EphA4 Fc fusion (Human, UniProt P54764 20-547)
T6 construct: SPR; Sino Biologics 11314-H03H

Human EphA1 Fc fusion = biological target: T7, Human EphA1 Fc fusion (Human, UniProt P21709 26-547)
T7 construct: SPR; Sino Biologics 15789-H02H
T7 sequence (looked up): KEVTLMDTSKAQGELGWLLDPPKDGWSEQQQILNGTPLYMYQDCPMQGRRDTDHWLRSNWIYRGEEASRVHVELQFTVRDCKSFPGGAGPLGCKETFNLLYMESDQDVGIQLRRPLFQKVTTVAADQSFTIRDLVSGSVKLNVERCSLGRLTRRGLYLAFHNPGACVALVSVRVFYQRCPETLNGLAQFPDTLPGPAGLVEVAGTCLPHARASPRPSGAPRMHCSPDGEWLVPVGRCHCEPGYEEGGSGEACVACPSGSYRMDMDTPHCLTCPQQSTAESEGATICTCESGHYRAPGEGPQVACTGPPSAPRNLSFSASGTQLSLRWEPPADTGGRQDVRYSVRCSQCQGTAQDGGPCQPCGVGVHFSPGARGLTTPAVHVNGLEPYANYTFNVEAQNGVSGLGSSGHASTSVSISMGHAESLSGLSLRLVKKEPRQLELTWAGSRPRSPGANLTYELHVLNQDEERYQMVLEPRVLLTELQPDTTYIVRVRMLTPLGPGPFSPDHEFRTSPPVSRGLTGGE

Measured: binding result

T6 sequence (P54764 20-547 limits assumed): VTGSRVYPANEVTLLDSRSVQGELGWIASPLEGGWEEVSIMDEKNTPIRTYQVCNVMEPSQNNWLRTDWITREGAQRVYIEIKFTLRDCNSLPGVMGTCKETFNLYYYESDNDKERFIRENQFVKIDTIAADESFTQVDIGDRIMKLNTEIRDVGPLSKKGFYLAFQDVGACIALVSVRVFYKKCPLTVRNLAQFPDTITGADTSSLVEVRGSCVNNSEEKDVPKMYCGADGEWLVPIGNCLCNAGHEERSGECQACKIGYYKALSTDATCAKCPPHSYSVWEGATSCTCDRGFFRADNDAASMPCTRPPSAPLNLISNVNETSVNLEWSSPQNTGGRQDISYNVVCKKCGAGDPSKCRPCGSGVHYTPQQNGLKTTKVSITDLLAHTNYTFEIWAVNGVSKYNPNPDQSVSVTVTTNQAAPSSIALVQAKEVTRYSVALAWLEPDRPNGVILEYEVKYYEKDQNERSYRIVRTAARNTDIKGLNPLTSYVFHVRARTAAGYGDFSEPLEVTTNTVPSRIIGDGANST
T5 sequence (Q03137 20-547 limits assumed): as the sequence (P54764 20-547 limits assumed) above, with P59A, N121S, V124G, R250Q, S251N, T270S, K378R, N406S counted along it

B1: BCY6082 (peptide)
peptide: AXDCPLVNPLCLHPGWTC
modifications: not fully specified; as BCY6014 (N-terminal (β-Ala)-Sar10; HArg; TATA scaffold on the 3 Cys) + DM1-SS(SO3H)-
notes: Bicycle drug conjugate (BDC)
no binding: all assays above

B2: BCY6033 (peptide)
peptide: AXDCPLVNPLCLHPGWTC
modifications: not fully specified; as BCY6014 (N-terminal (β-Ala)-Sar10; HArg; TATA scaffold on the 3 Cys) + ValCit-MMAE
notes: Bicycle drug conjugate (BDC)
no binding: all assays above
